In experiment [1] the target is Leavenworthia alabamica Lal2 polypeptide, a1-1 allele (Leavenworthia alabamica). Description: cell-based or functional assay.
Experiment [2] has as its target Leavenworthia alabamica Lal2 polypeptide, a1-2 allele (Leavenworthia alabamica). The experiment in a line: cell-based or functional assay.

Leavenworthia alabamica Lal2 polypeptide, a1-1 allele (Leavenworthia alabamica), sequence (chain, as listed by the source limits assumed, form in doubt): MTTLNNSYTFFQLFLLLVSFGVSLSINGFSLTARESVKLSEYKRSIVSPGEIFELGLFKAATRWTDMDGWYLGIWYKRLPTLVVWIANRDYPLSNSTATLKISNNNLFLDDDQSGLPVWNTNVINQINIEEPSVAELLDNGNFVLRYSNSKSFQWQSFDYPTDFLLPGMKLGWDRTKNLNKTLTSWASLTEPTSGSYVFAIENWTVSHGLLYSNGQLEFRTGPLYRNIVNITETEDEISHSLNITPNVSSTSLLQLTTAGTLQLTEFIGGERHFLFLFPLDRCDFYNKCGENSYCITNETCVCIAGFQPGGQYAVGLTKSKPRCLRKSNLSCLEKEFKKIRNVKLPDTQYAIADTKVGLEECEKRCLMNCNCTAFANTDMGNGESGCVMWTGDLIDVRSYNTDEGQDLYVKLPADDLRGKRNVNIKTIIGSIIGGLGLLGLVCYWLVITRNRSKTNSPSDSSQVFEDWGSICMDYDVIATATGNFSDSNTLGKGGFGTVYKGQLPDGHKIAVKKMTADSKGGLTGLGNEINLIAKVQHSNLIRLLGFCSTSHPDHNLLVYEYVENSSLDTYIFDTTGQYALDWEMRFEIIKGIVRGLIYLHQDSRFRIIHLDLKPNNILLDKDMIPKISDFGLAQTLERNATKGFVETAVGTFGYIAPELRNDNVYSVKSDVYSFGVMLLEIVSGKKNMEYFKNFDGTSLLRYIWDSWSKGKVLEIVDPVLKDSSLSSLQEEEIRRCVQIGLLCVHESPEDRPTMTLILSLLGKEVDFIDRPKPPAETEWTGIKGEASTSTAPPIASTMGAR
Leavenworthia alabamica Lal2 polypeptide, a1-2 allele (Leavenworthia alabamica), sequence (main, as listed by the source): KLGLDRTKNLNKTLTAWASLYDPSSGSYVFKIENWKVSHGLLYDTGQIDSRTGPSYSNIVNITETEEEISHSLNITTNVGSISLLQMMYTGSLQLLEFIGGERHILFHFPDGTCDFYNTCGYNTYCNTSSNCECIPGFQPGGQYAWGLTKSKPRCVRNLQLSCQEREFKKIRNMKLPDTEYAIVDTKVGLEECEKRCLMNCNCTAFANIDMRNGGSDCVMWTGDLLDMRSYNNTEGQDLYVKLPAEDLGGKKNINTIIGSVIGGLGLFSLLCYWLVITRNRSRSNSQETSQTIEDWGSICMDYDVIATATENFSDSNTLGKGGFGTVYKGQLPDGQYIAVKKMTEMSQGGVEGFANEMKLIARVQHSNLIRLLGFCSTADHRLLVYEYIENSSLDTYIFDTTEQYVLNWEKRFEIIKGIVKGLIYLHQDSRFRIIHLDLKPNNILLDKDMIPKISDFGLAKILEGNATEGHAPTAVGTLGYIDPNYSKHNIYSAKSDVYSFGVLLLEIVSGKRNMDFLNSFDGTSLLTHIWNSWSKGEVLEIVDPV

With “Leavenworthia alabamica SCRL polypeptide, a1-1 allele”, the Pollen rejection reactions observed (fewer than ten pollen tubes in the pistil); female line 1-15 (Lal2 transformant) x male line 3-13 (SCRL transformant), 5 crosses in experiment [1] is 3 of 5 crosses.
For “Leavenworthia alabamica SCRL polypeptide, a1-1 allele (ligand)”, in experiment [1], the Pollen rejection reactions observed (fewer than ten pollen tubes in the pistil); female line 1-15 (Lal2 transformant) x male line 4-21 (SCRL transformant), 5 crosses was 3 of 5 crosses; the Pollen rejection reactions observed (fewer than ten pollen tubes in the pistil); female line 1-25 (Lal2 transformant) x male line 3-13 (SCRL transformant), 5 crosses is 4 of 5 crosses; the Pollen rejection reactions observed (fewer than ten pollen tubes in the pistil); female line 1-25 (Lal2 transformant) x male line 4-21 (SCRL transformant), 5 crosses was 1 of 5 crosses.

B1: Leavenworthia alabamica SCRL, a2 allele (truncated protein) (ligand)
chain: MAKSVRLISFIIYLTINMLIFAVNPKPHSSQVPPIPDPGKHRRCF
Molecule B1 gave a Crosses that produced fruit or had germinated pollen tubes; a1-2 recipient plant x a2 pollen donors (% of 9 crosses) in experiment [2] of 89.

The values are drawn from US20150322445A1.
